Source: patent publication US20210292396A1
Several values for one entry are separate records, joined by “and”; a condition that tells them apart may be missing. Identical values can stand only once.

Experiments:
Test in all cases: cell-based or functional assay
[1] = molecular target: HIV Env of isolate 0260.v5.c36 (HIV)
[2] = molecular target: HIV Env of isolate 1056_10_TA11_1826 (HIV)
[3] = molecular target: HIV Env of isolate 1394C9G1(Rev-) (HIV)
[4] = molecular target: HIV Env of isolate 191084_B7-19 (HIV)
[5] = molecular target: HIV Env of isolate 235-47 (HIV)
[6] = molecular target: HIV Env of isolate 249M_B10 (HIV)
[7] = molecular target: HIV Env of isolate 6244_13_B5_4576 (HIV)
[8] = molecular target: HIV Env of isolate 6480.v4.c25 (HIV)
[9] = molecular target: HIV Env of isolate 6811.v7.c18 (HIV)
[10] = molecular target: HIV Env of isolate 7030102001E5(Rev-) (HIV)
[11] = molecular target: HIV Env of isolate 928-28 (HIV)
[12] = molecular target: HIV Env of isolate BJOX009000.02.4 (HIV)
[13] = molecular target: HIV Env of isolate CNE17 (HIV)
[14] = molecular target: HIV Env of isolate CNE5 (HIV)
[15] = molecular target: HIV Env of isolate Ce2060_G9 (HIV)
[16] = molecular target: HIV Env of isolate Du156.12 (HIV)
[17] = molecular target: HIV Env of isolate Du422.1 (HIV)
[18] = molecular target: HIV Env of isolate HIV-0013095-2.11 (HIV)
[19] = molecular target: HIV Env of isolate HIV-001428-2.42 (HIV)
[20] = molecular target: HIV Env of isolate HIV-16055-2.3 (HIV)
[21] = molecular target: HIV Env of isolate HIV-16845-2.22 (HIV)
[22] = molecular target: HIV Env of isolate PVO.4 (HIV)
[23] = molecular target: HIV Env of isolate QH0692.42 (HIV)
[24] = molecular target: HIV Env of isolate SC422661.8 (HIV)
[25] = molecular target: HIV Env of isolate T250-4 (HIV)
[26] = molecular target: HIV Env of isolate T251-18 (HIV)
[27] = molecular target: HIV Env of isolate WITO4160.33 (HIV)
[28] = molecular target: HIV Env of isolate X1254_c3 (HIV)
[29] = molecular target: HIV Env of isolate X2088_c9 (HIV)
[30] = molecular target: HIV Env of isolate ZM214M.PL15 (HIV)
[31] = molecular target: HIV Env of isolate ZM233M.PB6 (HIV)
[32] = molecular target: HIV Env of isolate ZM53M.PB12 (HIV)

B1: ePGT121.15.H2.L1 (antibody, V domains shown)
VH: QMQLQESGPGLVKPGETLSLTCSVSGASISSSYWSWLRETPGKGLEWIGYTHHSGDTNYAPSLKSRVHLGLHPSKNQVSLSLTSVTAADTAVYYCARTLHGRRIYGVVAFNEWFTYFYWEVWGKGTQVTVSS
VL: SDISVAPGETVRISCGGESIGSRAVQWYQHRAGQAPKLIIYNNQDRPPGIPERFSGSPDIDFGTTATLTITNVEAGDEATYYCHIWDSRRPTNWVFGGGTTLTVL
- neutralization (Table 6 value) [1]: 0.00199
- neutralization (Table 6 value) [2]: 0.000864
- neutralization (Table 6 value) [3]: 0.00203
- neutralization (Table 6 value) [4]: 0.00196
- neutralization (Table 6 value) [5]: 0.00466
- neutralization (Table 6 value) [6]: 0.00271
- neutralization (Table 6 value) [7]: 0.00689
- neutralization (Table 6 value) [8]: 4.5e-05
- neutralization (Table 6 value) [9]: 0.00194
- neutralization (Table 6 value) [10]: 0.00197
- neutralization (Table 6 value) [11]: 0.0488
- neutralization (Table 6 value) [12]: 0.0259
- neutralization (Table 6 value) [13]: 0.00577
- neutralization (Table 6 value) [14]: 0.743
- neutralization (Table 6 value) [15]: 0.0132
- neutralization (Table 6 value) [16]: 0.000443
- neutralization (Table 6 value) [17]: 0.00326
- neutralization (Table 6 value) [18]: 0.698
- neutralization (Table 6 value) [19]: 0.00136
- neutralization (Table 6 value) [20]: 0.698
- neutralization (Table 6 value) [21]: 0.0222
- neutralization (Table 6 value) [22]: 0.00346
- neutralization (Table 6 value) [23]: 0.0116
- neutralization (Table 6 value) [24]: 0.00145
- neutralization (Table 6 value) [25]: 0.00084
- neutralization (Table 6 value) [26]: 0.0252
- neutralization (Table 6 value) [27]: 0.00428 and 0.00241
- neutralization (Table 6 value) [28]: 0.00235
- neutralization (Table 6 value) [29]: 0.000985
- neutralization (Table 6 value) [30]: 0.00727
- neutralization (Table 6 value) [31]: 0.0048 and 0.00672
- neutralization (Table 6 value) [32]: 0.00177
